The data set can be described thus: yeast display, Sf9 membrane polyspecificity reagent, FACS + sequencing; frameworks hold sequencing errors. The method, boiled down:
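A synthetic nanobody library was expressed on Saccharomyces cerevisiae BJ5465 by galactose induction for 36–48 hours. The library was stained for 1 hour at 4 °C with 10% biotinylated, detergent-solubilized Sf9 membrane reagent and enriched with streptavidin microbeads before FACS. Low and high (top ~1%) gates were set on anti-HA fluorescence for expression and streptavidin fluorescence for reagent binding, and each polyreactivity label reflects the gate of origin.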
As to “QVQLVESGGGLDQAGGSLRLSCAASGSTYPGNAMGWYRQAPGKERELVAAIDSSTGSTYYADSVKGRFTISRDHAKNTVYLQMNSLKPEDNAVYYCNKTSFLVKLDYWGLGTQVTVSS”, the “polyreactivity (PSR sort gate)” value is “low polyreactivity”. Next, “QVQLVESGGGLDQAGGSLRLSCAASGSTYSYYAMGWYRQAPGKERELVAAISRSGGSTYYADSVKGRFTISRDNAKNTVYLQMNCMKPEDTAVYYCAARGQYRYSFGDYSWGQGTQVTVSS”: “high polyreactivity”. As for “QVQLVESGGGLDQAGGSLRLSCAASGYTLGDYAMGWYRQAPGKERELVAVITRNGGRTYYADSVKGRFTISRDNAKNTVFLQMNSLKPEDTAVYYCNRDTSIRDYNYWGQGTQVTVSS”, the “polyreactivity (PSR sort gate)” value is listed as “high polyreactivity”. Then “QVQLVESGGGLDQAGGSLRLSCAASGYTYLRNAMGWSRQAPGKERELVAAISYSGGGTYYADSVKGRFTISRDNAKNTVYLQMHSLKPEDTAVYYCAADRGGLRWFWQVLYDYWGQGTQVTVSS”, with “low polyreactivity”.

Regarding “QVQLVESGGGLDQAGGSLRLSCAAYGSTFTYQSMGWYRQATGKERELVAAITWSSDITYYADSVKGRFTISRDNAKSTVYLQMNSLKPEDTAVYYCAADGVTRDYVYWGQGTQVTVSS”, the “polyreactivity (PSR sort gate)” value is recorded as “low polyreactivity”.

In the case of “QVQLVESGGGLDQAGGSLRLSCAPSGFIFIRNAMGWYRQAPGKDRELVAAISSGGRTYYADSVKGRFTISRDNAKNTVYLQMNSLKPEDTAVDYCATRPHRPRGQSVGQYDDWGQGTQVTVSS”, the “polyreactivity (PSR sort gate)” value is on record as “high polyreactivity”.

Turning to “QVQLVESGGGLDQAGGSLRLSCAPSGSIFGSYAMGWYRQAPGKERELVAAIRRSSASTYYADSVKGRFTISRDNAKNTVYLQMNSLKPEDTAVYYCATQSYSDYGYRYRYAAYDYWGQGTQVTVSS”, the “polyreactivity (PSR sort gate)” value is reported as “high polyreactivity”. Then “QVQLVESGGGLDQAGGSLRLSCAPSGSIVRYAMGWYRPAPGKERELVAAISSSGGSTYYADSVKGRFTISRDNAKNTFYLQMNRLKPADTAVYYCAKRIVQASVAAYYYWGQGPQVTVSS”, with “high polyreactivity”. Next, “QVQLVESGGGLDQAGGSLRLSCPASAITFQLYAKGWYRQAPGKERELVAAISRSGSGTYYADSVKGRFTISRDNAKNTVYLQMHSLKPEDTAVYYCAALGPGYYWGQGTQVTVSS”: “high polyreactivity”; “QVQLVESGGGLDQAGGSLRLSSAASGFTFVYYAMGWYRQAPGKERELVAAISWSGGTTYYADSVKGRFTISRDNAKNTVYLQMNSLKPEDTAVYYCNVYPAYIYFDYDYWGQGTQVTVSS”: “high polyreactivity”.

As to “QVQLVESGGGLDQAGGSLRLSSAASGSMILHNDMGWYRQAPGKEMELVATIDSAGGTYYADSVKGRFTISRDNAKNTVYLQMNSLKPEDSAVYYCAAYGPYVLSIYDYWGQGTQVTVSS”, the “polyreactivity (PSR sort gate)” value was “low polyreactivity”.

With “QVQLVESGGGLDQAGGSLRLTCAASGNTSEYYAMGWSRQAPGKERQLVAAIRSDVRTYYADSVKGRFTISRDNAKNTVYLQMNSLKPEDTAVYYCNADKSAWDYYLQTFNYWGQGTQVTVSS”, the “polyreactivity (PSR sort gate)” value is on record as “high polyreactivity”. Next, “QVQLVESGGGLDQAGGSLRLTCAASGSIFRWYAMGWYRQAPGKERELVAAISRGASTNYADSVKGRFTISRDNAKNTVYLKMNSLKPEDTAVYFCAKRTTRLATYDYWGQGTQVTVSS”: “high polyreactivity”; “QVQLVESGGGLDQAGGSLRLTCAASGSTFQFYAMGWYRQAPGKERYLVAAISGAGGSTYYADSVKGRFTISRDNAKNTVYLQMNILKPEDTAVYYCNKVRRKQSVLTFDYWGQGTQVTVSS”: “high polyreactivity”. “QVQLVESGGGLDQAGGSLRLTCAASRFNFNGYAMGSYSQAPRKERELVAGITSGGRTNYADSVKGRFTISRDNAKNTVYLQMNSLKPEDTAVYYCNRYKVSGYDYWGQGTQVTVSS”: the “polyreactivity (PSR sort gate)” value is reported as “high polyreactivity”. Next, “QVQLVESGGGLDQAGGSLRLTSAASGSTFYRNAMGWYRQAPGKERELVAAITIRGGSTSFADSVKGRFTISRDNAKNTVYLQMNSLKPEDTAVYYCNADPRAEPGDWSYEMDYWGQGTQVTVSS”: “low polyreactivity”; “QVQLVESGGGLDQAGGSLRLTWAASGSIIGRNFMGLYRQAPGKEREFLAAIRSSGATTYYADSVKGRFTISRDNAKYTVFLQMTSLKPEDTAVYYCNARPPYYTVQTGGYDYWGQGTQVTVSS”: “low polyreactivity”. Next, “QVQLVESGGGLDQAGGSLRVSCAASGSILRYTMGWYRQAPGKERELVAAITRSGTSTYYADSVKGRFTISRDNAKNTVYLQMNSLKPEDTAVYYCAADDHYGRGFQYYYWGQGTQVTVSS”: “high polyreactivity”; “QVQLVESGGGLDQAGGSLRVSCAASGSTFHRNAMGWYRQAPGKERELVAAITSGGSTNYADSVKGRFTISRDNAKNTVYLQMNSLNPEDTAVYYCAKDYLHYNRGWYDYWGQGTQVTVSW”: “low polyreactivity”; “QVQLVESGGGLDQAGGSRRLSCAASGITFGRNTMGWYRQSPGKERELVASISYSGTTTYYADSVKGRFTISPDNAKNTVYLQMNSLKPEDTAVYYCNKRWRYYDMDYWGQGTQVTVSS”: “low polyreactivity”.

With “QVQLVESGGGLDQAGGSVRLSCAASGSTFDNYAMGWYRQAPGKEREWVAVISRSGTSTYYADSVKGRFTISRDNAKNTVYLQMNSLKPEDTAVYYCASAPSQVYRARFYYWGQGTQVTVSS”, the “polyreactivity (PSR sort gate)” value is on record as “high polyreactivity”. Then “QVQLVESGGGLDQARGSLRLSCAASGFTFKFYAMGWYRQSPGKEREFVAAISGSGDSTYADSVKGRFTISRDNAKNTVYLQMNSLKPEDTAVYYCNARYAGVPWWGYYSSEVNYWGQGTQVTVSS”, with “low polyreactivity”. Consider “QVQLVESGGGLDQARGSLRLSCAASGLTFVEYAMGWYRQAPGKESELVADITISGGRTYYADSVKGRFTISRDNAKYTVYLQMNSLKPEDTAVYYCNAQSYLGVTHRGYIKNGYDYWGQGTQVTVSS”, for which the “polyreactivity (PSR sort gate)” value was “low polyreactivity”. “QVQLVESGGGLDQARGSLRLSCAASGRIFYTYAMGWYRRAPGKERELVAAISRSGTSTYYADSVKGRFTISRDNAKNTVYLQMNSLKPEDTAVYYCAAAKWYSVAYVGTFKYDYWGQGTQVTVSS”: the “polyreactivity (PSR sort gate)” value is given as “high polyreactivity”.

For the sequence “QVQLVESGGGLDQARGSLRLSCAASGSTFYYYAMGWYRQAPGKERELVAAITSRGGRTYYADSVKGRFTISRDNAKNTVYLQMNSLKPEDTAVYYCNARTIYYGFDYWGQGTQVTVSS”, the “polyreactivity (PSR sort gate)” value is recorded as “low polyreactivity”. Next, “QVQLVESGGGLDQEGGSLRLSCAASGSIFFWNDMGWYRQAPGKERELVAAISWSGGSTSYADSVKGRFTISRDNAKNTVYLQMNSLKPEDTAVYYCAAEYTYGSPYDYWGQGTQVTVSS”: “low polyreactivity”.

As to “QVQLVESGGGLEQAGGRLRLSCAASGSTFGGYAMGWFRQSPGTERQLVAAISGSGVRTYYADSVKGRFTISRDTAKNTVYLEMNSLNQEDTEVFYCAKRVRYPGDLYYYWGQGTQVTVSW”, the “polyreactivity (PSR sort gate)” value is recorded as “high polyreactivity”. Next, “QVQLVESGGGLEQAGGRLRLSCADSRRIFGRYAMGWYRQAPGKERELVAAINQSGSTTYYADSVKGRFTISRDNAKNTVYLQMNSLKPEDTAVYYCAADGNGVDYDYWGQGTQVTVSS”: “low polyreactivity”; “QVQLVESGGGLFHAGGSLRLSCAAYGSTFPYYTMGWYRQAPGKERELVAAITTRGGGTYYADSVKGRFTISRDNAKNTVYIQMKSLKPEDTAVYYCAAKTIYYTRGIRHYYWGQVTQVTVSS”: “high polyreactivity”; “QVQLVESGGGLFQAGGRLRLSCAASGSIFPPYAMGWYRQAPGKERELVAAINWSGGRTYYADSVKGRFTISRDHPKNTLYLHMNSLKPEDTEDYYGAADLRRYSGEYYYWGQRTQVTVSS”: “high polyreactivity”.

Turning to “QVQLVESGGGLFQAGGRLRLSCAASGYTFYLNAMGWYRQAPGKEREFVAVIDDSGDSTDYADSVKGRFTISRDNAKNTVYLQMHSLKPEDTAVYYCAANEGGTGDDYWGQGTQVTVSS”, the “polyreactivity (PSR sort gate)” value is “low polyreactivity”. Then “QVQLVESGGGLFQAGGSLRISFAASGRIFGVNAMGWYRQAPGTQSELVAAISAGGGNTYYADSVKGRFTISRDNAKNTVYLQMNRLKPEDTAVYFCNVQRSLRMDFWGQGTQVTVSS”, with “high polyreactivity”; and “QVQLVESGGGLFQAGGSLRISSAPSGRTYYRNAMGWYRQAPGIERELVAAISWSGGRTYYADSVKGRFTISRDNAKNTVYLQMNSLKPEDSAVYYCAALFIYRSYAALSRYDYWGQGTQVTVSS”, with “high polyreactivity”. Then “QVQLVESGGGLFQAGGSLRLSCAASGFIFGLYAMGWYRQAPGKEREFVAAISTSSGITYYADSVKGRFTISRDNAKNTVYLQMNSLKPEDTAVYDCAARGHYYDYWRQGTQVTVSS”, with “low polyreactivity”; and “QVQLVESGGGLFQAGGSLRLSCAASGFIFYYNTMGWYRQAPGKERELVAAISSGGRTYYADSVKGRFTISRDNAKNTVYLQMNSLKPEDTAVYYCNVVTYVKYGCWGQGTQVTVSS”, with “high polyreactivity”. For the sequence “QVQLVESGGGLFQAGGSLRLSCAASGFTFPHYMGWYRQAPGKERELVAAINVSGGSTSYADSVKGRFSISRDNAKNTVYLQMNSLKPEDTGVYFCAKDLRFRLFSYPSDYWGQGTQVTVSS”, the “polyreactivity (PSR sort gate)” value is on record as “low polyreactivity”. Then “QVQLVESGGGLFQAGGSLRLSCAASGFTFVDYAMAWYRQAPGKERELVAAITVSGDSTYYADSVKGRFTISRDNAKNTVYLQMNSLKRADTAFYYCAADPGYYYGGYWGQGTQVTVST”, with “low polyreactivity”.

For the sequence “QVQLVESGGGLFQAGGSLRLSCAASGFTPGNVRGCYRQAPGKERELVAAISWSADSTYYADSVKGRFTISRDNAKNTVNLQMKSLKREDSAVYYCSADGVPGRAVDYEYWRQGTQVTVSS”, the “polyreactivity (PSR sort gate)” value is listed as “high polyreactivity”. Then “QVQLVESGGGLFQAGGSLRLSCAASGGIFVDNAMGWYRQAPGKERELVAAISWSGGSTYYADSVKGRFTISRYHAKNTVYLQMNSLKPEDTAVYYCAKVYVEDEGYQWADYDYWGQGTQVTVSS”, with “low polyreactivity”; and “QVQLVESGGGLFQAGGSLRLSCAASGGTFPYNAMGWYRPAPGKERELVATISFTDGSTYYADSVKGRFTLSRYIAKNTVYLQMNSLKPEDTAVYYCAKDYYRPGMDYWGQGTQVTVSS”, with “low polyreactivity”. Next, “QVQLVESGGGLFQAGGSLRLSCAASGIIFYHYAMGWYRQAPGKERELVAAITRSGSRTYYADSVKGRFTISRDNAKNTVYLQLNSLKPEDTAVYYCAYRRRWYGIRNYYWGQGTQVTVSS”: “high polyreactivity”.

The values are drawn from the nanobody polyreactivity screen of Harvey et al. (2022).
